Experimental data reported in patent US11851498B2, “Anti-CD276 antibodies (B7H3)” (THE UNITED STATES OF AMERICA, as represented by THE …, priority 2014, dated 2023).

How the values were obtained:
[1] = biological target: T1, mouse CD276 expressed on the cell surface (CHO-msCD276) (Mus musculus, UniProt Q8VE98); assay: Flow cytometry binding to CHO cells expressing mouse CD276; assay type: cell-based; conditions: scFv-Fc, 1 μg/100 μl, FIG. 4
T1 construct: expressed in transfected cells; host or cells: CHO cells
T1 sequence (Q8VE98 29-316): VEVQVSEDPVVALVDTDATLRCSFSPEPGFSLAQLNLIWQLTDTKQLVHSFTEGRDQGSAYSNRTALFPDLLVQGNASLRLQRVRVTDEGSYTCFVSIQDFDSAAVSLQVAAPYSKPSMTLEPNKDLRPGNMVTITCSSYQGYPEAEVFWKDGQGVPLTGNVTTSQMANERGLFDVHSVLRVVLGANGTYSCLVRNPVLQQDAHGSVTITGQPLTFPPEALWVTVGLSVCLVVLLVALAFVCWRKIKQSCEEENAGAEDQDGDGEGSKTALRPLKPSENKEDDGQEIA
Experimental: (§1) Chinese hamster ovary (CHO) cells were untransduced or transduced to express mouse CD276 or human CD276. The cells were cultured with 1 μg/100 μl of the anti-CD276 scFv-Fc m8524 (m276) (SEQ ID NOs: 26 and 27) (primary antibody) and fluorescein isothiocyanate (FITC) Gt anti-human antibody (H+L) (as a secondary antibody). The binding of the anti-CD276 scFv-Fc m8524 (m276) to mouse or human CD276 expressed on the cell surface was measured by flow cytometry.

human CD276 Ecto-domain = biological target: T2, human CD276 Ecto-domain (Homo sapiens, UniProt Q5ZPR3); assay: Affinity determination by surface plasmon resonance (Biacore X100); assay type: binding; conditions: scFv m8524; immobilized human CD276 soluble extracellular domain; 1:1 Langmuir fit; 25° C; FIG. 2
T2 construct: The human CD276 soluble extracellular domain was covalently immobilized onto a sensor chip (CM5)
T2 sequence (Q5ZPR3 29-466 limits assumed): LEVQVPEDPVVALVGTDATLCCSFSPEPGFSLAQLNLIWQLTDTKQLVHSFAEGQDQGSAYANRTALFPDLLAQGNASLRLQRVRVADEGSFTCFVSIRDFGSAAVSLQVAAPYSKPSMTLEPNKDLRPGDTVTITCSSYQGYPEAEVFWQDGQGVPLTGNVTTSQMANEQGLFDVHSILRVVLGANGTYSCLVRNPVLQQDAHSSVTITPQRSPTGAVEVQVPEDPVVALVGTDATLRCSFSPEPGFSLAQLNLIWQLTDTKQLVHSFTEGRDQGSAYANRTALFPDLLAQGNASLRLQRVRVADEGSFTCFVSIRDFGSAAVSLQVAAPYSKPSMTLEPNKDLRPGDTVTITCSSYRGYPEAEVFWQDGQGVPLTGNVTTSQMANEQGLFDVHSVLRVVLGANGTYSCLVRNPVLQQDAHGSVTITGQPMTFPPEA
Experimental: Binding affinities of human anti-CD276 scFv m8524 to human CD276 Ecto-domain were analyzed by surface plasmon resonance technology using a Biacore X100 instrument (GE healthcare). The human CD276 soluble extracellular domain was covalently immobilized onto a sensor chip (CM5) using carbodiimide coupling chemistry. A control reference surface was prepared for nonspecific binding and refractive index changes. For analysis of the kinetics of interactions, varying concentrations of […] were injected at a flow rate of […] using running buffer containing 10 mM HEPES, 150 mM NaCl, 3 mM EDTA, and 0.05% Surfactant P-20 (pH 7.4). The association and dissociation phase data were fitted simultaneously to a 1:1 Langumir global model, using the nonlinear data analysis program BIAevaluation 3.2. All of the experiments were done at 25° C. The affinity of the antibody m8524 (m276) (comprising a heavy chain comprising SEQ ID NO: 26 and a light chain comprising SEQ ID NO: 27) is shown in FIG. 2.

[2] = biological target: T3, human CD276 expressed on the cell surface (CHO-huCD276) (Homo sapiens, UniProt Q5ZPR3); assay: Flow cytometry binding to CHO cells expressing human CD276; assay type: cell-based; conditions: scFv-Fc, 1 μg/100 μl, FIG. 4
T3 construct: expressed in transfected cells; host or cells: CHO cells
T3 sequence (Q5ZPR3 29-534): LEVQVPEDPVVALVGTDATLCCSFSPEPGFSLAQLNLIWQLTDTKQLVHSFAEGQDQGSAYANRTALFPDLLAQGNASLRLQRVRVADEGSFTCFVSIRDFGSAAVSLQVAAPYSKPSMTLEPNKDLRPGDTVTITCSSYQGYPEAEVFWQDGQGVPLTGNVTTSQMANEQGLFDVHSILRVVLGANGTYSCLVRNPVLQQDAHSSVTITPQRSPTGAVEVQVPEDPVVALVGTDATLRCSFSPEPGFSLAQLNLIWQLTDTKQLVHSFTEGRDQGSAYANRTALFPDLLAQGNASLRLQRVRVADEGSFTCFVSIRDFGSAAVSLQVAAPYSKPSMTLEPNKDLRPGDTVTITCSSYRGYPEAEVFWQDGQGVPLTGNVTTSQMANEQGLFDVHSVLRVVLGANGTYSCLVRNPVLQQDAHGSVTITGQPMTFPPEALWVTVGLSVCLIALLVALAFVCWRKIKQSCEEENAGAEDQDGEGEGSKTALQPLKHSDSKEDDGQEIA
Experimental: as §1

HEK 293 cells (293) = assay: Cell viability of untransduced HEK 293 cells
Experimental: (§2) HEK 293 cells (293) or HEK 293 cells transduced with CD276 (293/CD276) were treated with MMAE alone, m8524 (m276) (SEQ ID NOs: 26 and 27) antibody alone, m825 (irrelevant control antibody)-ADC, or m8524-ADC. The drug of the ADCs was MMAE.

[3] = test system: mouse CD276-AP fusion protein; assay: ELISA binding assay, mouse CD276; conditions: scFv-Fc fusion protein in culture medium, serially diluted; CD276-AP coated at 2 μg/ml; FIG. 1B
Experimental: (§3) The scFv-encoding inserts of the unique clones were digested with SfiI and ligated into modified pSecTag bearing the same set of SfiI sites and Fc-Avi tag for soluble expression. These constructs were transfected into 293T cells for expression following the manufacturer's protocol. After 72 hr of growth, the scFv-Fc fusion proteins in the culture medium were used for the ELISA binding assay.
(§4) 50 μl of the diluted human (FIG. 1A) or mouse (FIG. 1B) CD276-AP fusion protein in PBS at 2 μg/ml was coated in a 96-well plate at 4° C. overnight. Transiently expressed scFv-Fc fusion protein in the culture medium was serially diluted and added into the target protein coated wells. After washing, a 1:3000 diluted horseradish peroxidase (HRP) conjugated goat anti-human IgG antibody was added for 1 hr at RT. After washing, 3, 3, 5, 5′-Tetramethylbenzidine (TMB) substrate was added, and the optical density (O.D.) was read at 450 nm.

293/CD276 cells = assay: Cell viability of HEK 293 cells transduced with CD276
Experimental: as §2

[4] = test system: human CD276-AP fusion protein; assay: ELISA binding assay, human CD276; conditions: scFv-Fc fusion protein in culture medium, serially diluted; CD276-AP coated at 2 μg/ml; FIG. 1A
Experimental: as §3, §4

B1: m8524: anti-CD276 antibody clone, heavy chain comprising SEQ ID NO: 26 and light chain comprising SEQ ID NO: 27 (antibody, V domains shown)
VH: QVQLQQSGAEVKKPGSSVKVSCKASGGTFSSYAISWVRQAPGQGLEWMGGIIPILGIANYAQKFQGRVTITADESTSTAYMELSSLRSEDTAVYYCARGGSGSYHMDVWGKGTTVTVSS
VL: EIVLTQSPATLSLSPGERATLSCRASQSVSSYLAWYQQKPGQAPRLLIYDASNRATGIPARFSGSGSGTDFTLTISSLEPEDFAVYYCQQRSNWPPRITFGQGTRLEIK
binding to mouse CD276 expressed on the cell surface (flow cytometry) [1]: bound | Kd (human CD276 Ecto-domain): 0.049 nM | binding to human CD276 expressed on the cell surface (flow cytometry) [2]: bound | cytotoxicity (cell viability, % of control) (HEK 293 cells (293)): resistant to killing | binding to mouse CD276 (OD at 450 nm, ELISA) [3]: bound | cytotoxicity (cell viability, % of control) (293/CD276 cells): resistant to killing | binding to human CD276 (OD at 450 nm, ELISA) [4]: bound
